Read-outs that look alike come from different tables or passages of the source.
How the values were obtained:
receptor on MCF-7 cells [1] = assay: cell-based or functional assay
receptor on MCF-7 cells [2] = assay: cell-based or functional assay; remark: listed apart in the source

## recombinant NRG polypeptide with an amino acid sequence of SEQ ID NO: 1 (from UniProt Q02297-11 122-190) (ligand)
Receptor on MCF-7 cells [1]
  EC50: 0.924 nM
Receptor on MCF-7 cells [2]
  EC50: 1.65 nM
